One may read the Kd as the concentration at which binding is half-saturated. The term EC50 (read off the curve) denotes the concentration that produces a half-maximal response.

Assay [1] addresses T1, biotinylated hPD-L1 (extracellular domain of human PD-L1, Ala18 to Thr239, expressed in E. coli, … (human, biotin on the epsilon-amino group of the Avi tag lysine (BirA))).
T1 construct: also called recombinant hPD-L1; non-glycosylated hPD-L1
Put plainly: fluorescence polarization, 100 nM ROX-SPAM with 2.4 nM-5 uM non-glycosylated hPD-L1, 21 C (119 +/- 33 nM in paragraph 94); non-glycosylated, E. coli-expressed hPD-L1. Here is the method: (§1) The resulting values were plotted against the concentration of hPD-L1 or hPD-L1* and fit to a one-site saturation binding model with GraphPad Prism.
(§2) The fluorescence polarization of each sample was measured on a Synergy H4 Hybrid Multi-Mode Microplate Reader. Each measurement was carried out in triplicate and the mean value was calculated. The values were fit to a one-site saturation binding model in GraphPad Prism to obtain the corresponding equilibrium dissociation constants.

In assay [2] the target is T2, hPD-L1* (recombinant glycosylated human PD-L1 ectodomain, A18-T239, expressed in Expi293F cells) (human, UniProt Q9NZQ7 18-239, N-glycosylated; Avi tag biotinylated in vitro with BirA).
T2 construct: also called glycosylated hPD-L1
The assay can be described thus: fluorescence polarization, 100 nM ROX-SPAM with 2.4 nM-5 uM glycosylated hPD-L1*, 22 C (67 +/- 21 nM in paragraph 94); glycosylated hPD-L1*. Here is the method: as §1, §2
In general terms: Fluorescence polarisation rises when a labelled molecule tumbles more slowly, as on binding a larger partner.

Assay [3] concerns the target T2, hPD-L1* (recombinant glycosylated human …). The assay can be described thus: fluorescence anisotropy, 100 nM ROX-SPAM titrated with hPD-L1*. The protocol:
(§3) Each measurement was carried out in triplicate and the mean value was reported along with the standard deviation. […] The mean of the normalized binding for each incubation time is shown along with the standard deviation of the mean. Each measurement was carried out in triplicate and error bars show the standard deviation of the mean (Students t-test; p value <0.05 (*), <0.01 (**), <0.005 (***), <0.001 (****)).
as §1

In assay [4] the target is T1, biotinylated hPD-L1 (extracellular …). The assay can be described thus: fluorescence anisotropy, 100 nM ROX-SPAM titrated with hPD-L1. Here is the method: as §3, §1

Primed or numbered codes have the meaning given here. Where no end group is shown, it is not given here. Side-chain parts run from the residue outwards. [ ]: non-standard residue; d: D form. triazole = 1,2,3-triazole formed by click reaction of the propargylglycine alkyne with ROX-azide; Pra′ = its azide, alkyne or alkene has reacted where a group follows in round brackets; ROX = carboxy-X-rhodamine, joined by click triazole

B1: ROX-SPAM (carboxy-X-rhodamine labeled SPAM peptide) (peptide)
peptide: MPIFLDHILNKFWILHYASG[Pra′]([triazole-ROX])-NH2
modifications: also: ROX attached to Pra by click triazole
notes: Synthetic peptide used in fluorescence polarization; also called ROX-labeled SPAM
B1: the dissociation constant (Kd) in assay [1] came to 0.119 µM; in assay [2] it was 0.067 µM. The figures for the “EC50 (read off the curve)” value in assay [3] and in assay [4] were roughly 0.07 µM and roughly 0.1 µM, respectively.
